Data taken from patent publication US20140357577A1, “HIV Membrane Fusion Inhibitors” (priority 2011, published 2014).
Starred links: 1 amine or outer side, 2 acyl side, 3 side chain; linkers in the order of their positions; H or OH if unused. Positions of bridges follow the written chain, without caps; N, C: chain ends. Non-standard residues stand in square brackets, D forms with d. *: point of attachment. cholesteryl‑oxycarbonylmethyl = CC(C)CCC[C@@H](C)[C@H]1CC[C@H]2[C@@H]3CC=C4C[C@@H](OC(=O)C*)CC[C@]4(C)[C@H]3CC[C@]12C; pXylylene = c1cc(C[*:2])ccc1C[*:1]; Palmitoyl = CCCCCCCCCCCCCCCC(=O)*; Suc = O=C(CCC(=O)[*:2])[*:1]; Hexanoyl = CCCCCC(=O)*; Pentanoyl = CCCCC(=O)*; Butyryl = CCCC(=O)*

B1: peptide 90 (peptide)
peptide: Suc-ECYLACIEELIRKAQEQQEKNEAALR-NH2
modifications: linker 2-6 via pXylylene
SMILES: CC[C@H](C)[C@H](NC(=O)[C@@H]1CSCc2ccc(cc2)CSC[C@H](NC(=O)[C@H](CCC(=O)O)NC(=O)CCC(=O)O)C(=O)N[C@@H](Cc2ccc(O)cc2)C(=O)N[C@@H](CC(C)C)C(=O)N[C@@H](C)C(=O)N1)C(=O)N[C@@H](CCC(=O)O)C(=O)N[C@@H](CCC(=O)O)C(=O)N[C@@H](CC(C)C)C(=O)N[C@H](C(=O)N[C@@H](CCCNC(=N)N)C(=O)N[C@@H](CCCCN)C(=O)N[C@@H](C)C(=O)N[C@@H](CCC(N)=O)C(=O)N[C@@H](CCC(=O)O)C(=O)N[C@@H](CCC(N)=O)C(=O)N[C@@H](CCC(N)=O)C(=O)N[C@@H](CCC(=O)O)C(=O)N[C@@H](CCCCN)C(=O)N[C@@H](CC(N)=O)C(=O)N[C@@H](CCC(=O)O)C(=O)N[C@@H](C)C(=O)N[C@@H](C)C(=O)N[C@@H](CC(C)C)C(=O)N[C@@H](CCCNC(=N)N)C(N)=O)[C@@H](C)CC
B2: peptide 6 (peptide)
peptide: Ac-ANYLALIEALIRAAQEQQEKNEAALR-NH2
B3: peptide 85 (peptide)
peptide: Butyryl-ECYLACIEELIRKAQEQQEKNEAALR-NH2
modifications: linker 2-6 via pXylylene
SMILES: CCCC(=O)N[C@@H](CCC(=O)O)C(=O)N[C@H]1CSCc2ccc(cc2)CSC[C@@H](C(=O)N[C@H](C(=O)N[C@@H](CCC(=O)O)C(=O)N[C@@H](CCC(=O)O)C(=O)N[C@@H](CC(C)C)C(=O)N[C@H](C(=O)N[C@@H](CCCNC(=N)N)C(=O)N[C@@H](CCCCN)C(=O)N[C@@H](C)C(=O)N[C@@H](CCC(N)=O)C(=O)N[C@@H](CCC(=O)O)C(=O)N[C@@H](CCC(N)=O)C(=O)N[C@@H](CCC(N)=O)C(=O)N[C@@H](CCC(=O)O)C(=O)N[C@@H](CCCCN)C(=O)N[C@@H](CC(N)=O)C(=O)N[C@@H](CCC(=O)O)C(=O)N[C@@H](C)C(=O)N[C@@H](C)C(=O)N[C@@H](CC(C)C)C(=O)N[C@@H](CCCNC(=N)N)C(N)=O)[C@@H](C)CC)[C@@H](C)CC)NC(=O)[C@H](C)NC(=O)[C@H](CC(C)C)NC(=O)[C@H](Cc2ccc(O)cc2)NC1=O
B4: peptide 86 (peptide)
peptide: Hexanoyl-ECYLACIEELIRKAQEQQEKNEAALR-NH2
modifications: linker 2-6 via pXylylene
SMILES: CCCCCC(=O)N[C@@H](CCC(=O)O)C(=O)N[C@H]1CSCc2ccc(cc2)CSC[C@@H](C(=O)N[C@H](C(=O)N[C@@H](CCC(=O)O)C(=O)N[C@@H](CCC(=O)O)C(=O)N[C@@H](CC(C)C)C(=O)N[C@H](C(=O)N[C@@H](CCCNC(=N)N)C(=O)N[C@@H](CCCCN)C(=O)N[C@@H](C)C(=O)N[C@@H](CCC(N)=O)C(=O)N[C@@H](CCC(=O)O)C(=O)N[C@@H](CCC(N)=O)C(=O)N[C@@H](CCC(N)=O)C(=O)N[C@@H](CCC(=O)O)C(=O)N[C@@H](CCCCN)C(=O)N[C@@H](CC(N)=O)C(=O)N[C@@H](CCC(=O)O)C(=O)N[C@@H](C)C(=O)N[C@@H](C)C(=O)N[C@@H](CC(C)C)C(=O)N[C@@H](CCCNC(=N)N)C(N)=O)[C@@H](C)CC)[C@@H](C)CC)NC(=O)[C@H](C)NC(=O)[C@H](CC(C)C)NC(=O)[C@H](Cc2ccc(O)cc2)NC1=O
B5: peptide 5 (peptide)
peptide: Ac-ANYAALIEALIRKAQEQQEKNEAALR-NH2
B6: peptide 92 (peptide)
peptide: Pentanoyl-ECYLCLIEELIRKAQEQQEKNEAALR-NH2
modifications: linker 2-5 via pXylylene
SMILES: CCCCC(=O)N[C@@H](CCC(=O)O)C(=O)N[C@H]1CSCc2ccc(cc2)CSC[C@@H](C(=O)N[C@@H](CC(C)C)C(=O)N[C@H](C(=O)N[C@@H](CCC(=O)O)C(=O)N[C@@H](CCC(=O)O)C(=O)N[C@@H](CC(C)C)C(=O)N[C@H](C(=O)N[C@@H](CCCNC(=N)N)C(=O)N[C@@H](CCCCN)C(=O)N[C@@H](C)C(=O)N[C@@H](CCC(N)=O)C(=O)N[C@@H](CCC(=O)O)C(=O)N[C@@H](CCC(N)=O)C(=O)N[C@@H](CCC(N)=O)C(=O)N[C@@H](CCC(=O)O)C(=O)N[C@@H](CCCCN)C(=O)N[C@@H](CC(N)=O)C(=O)N[C@@H](CCC(=O)O)C(=O)N[C@@H](C)C(=O)N[C@@H](C)C(=O)N[C@@H](CC(C)C)C(=O)N[C@@H](CCCNC(=N)N)C(N)=O)[C@@H](C)CC)[C@@H](C)CC)NC(=O)[C@H](CC(C)C)NC(=O)[C@H](Cc2ccc(O)cc2)NC1=O
B7: peptide 83 (peptide)
peptide: Ac-ACYAA[dC]IEALIRAAQEQQEKNEAALR-NH2
modifications: linker 2-6 via pXylylene; not fully specified
B8: peptide 82 (peptide)
peptide: Suc-ECYLRCIEELIRKAQEQQEKNEAALRGSGC(cholesteryl‑oxycarbonylmethyl)-NH2
modifications: linker 2-6 via pXylylene
SMILES: CC[C@H](C)[C@H](NC(=O)[C@H](CC(C)C)NC(=O)[C@H](CCC(=O)O)NC(=O)[C@H](CCC(=O)O)NC(=O)[C@@H](NC(=O)[C@@H]1CSCc2ccc(cc2)CSC[C@H](NC(=O)[C@H](CCC(=O)O)NC(=O)CCC(=O)O)C(=O)N[C@@H](Cc2ccc(O)cc2)C(=O)N[C@@H](CC(C)C)C(=O)N[C@@H](CCCNC(=N)N)C(=O)N1)[C@@H](C)CC)C(=O)N[C@@H](CCCNC(=N)N)C(=O)N[C@@H](CCCCN)C(=O)N[C@@H](C)C(=O)N[C@@H](CCC(N)=O)C(=O)N[C@@H](CCC(=O)O)C(=O)N[C@@H](CCC(N)=O)C(=O)N[C@@H](CCC(N)=O)C(=O)N[C@@H](CCC(=O)O)C(=O)N[C@@H](CCCCN)C(=O)N[C@@H](CC(N)=O)C(=O)N[C@@H](CCC(=O)O)C(=O)N[C@@H](C)C(=O)N[C@@H](C)C(=O)N[C@@H](CC(C)C)C(=O)N[C@@H](CCCNC(=N)N)C(=O)NCC(=O)N[C@@H](CO)C(=O)NCC(=O)N[C@@H](CSCC(=O)O[C@H]1CC[C@@]2(C)C(=CC[C@H]3[C@@H]4CC[C@H]([C@H](C)CCCC(C)C)[C@@]4(C)CC[C@@H]32)C1)C(N)=O
B9: peptide 91 (peptide)
peptide: Pentanoyl-ECYLRCIEELIRKAQEQQEKNEAALR-NH2
modifications: linker 2-6 via pXylylene
SMILES: CCCCC(=O)N[C@@H](CCC(=O)O)C(=O)N[C@H]1CSCc2ccc(cc2)CSC[C@@H](C(=O)N[C@H](C(=O)N[C@@H](CCC(=O)O)C(=O)N[C@@H](CCC(=O)O)C(=O)N[C@@H](CC(C)C)C(=O)N[C@H](C(=O)N[C@@H](CCCNC(=N)N)C(=O)N[C@@H](CCCCN)C(=O)N[C@@H](C)C(=O)N[C@@H](CCC(N)=O)C(=O)N[C@@H](CCC(=O)O)C(=O)N[C@@H](CCC(N)=O)C(=O)N[C@@H](CCC(N)=O)C(=O)N[C@@H](CCC(=O)O)C(=O)N[C@@H](CCCCN)C(=O)N[C@@H](CC(N)=O)C(=O)N[C@@H](CCC(=O)O)C(=O)N[C@@H](C)C(=O)N[C@@H](C)C(=O)N[C@@H](CC(C)C)C(=O)N[C@@H](CCCNC(=N)N)C(N)=O)[C@@H](C)CC)[C@@H](C)CC)NC(=O)[C@H](CCCNC(=N)N)NC(=O)[C@H](CC(C)C)NC(=O)[C@H](Cc2ccc(O)cc2)NC1=O
B10: peptide 84 (peptide)
peptide: Ac-ACYAACIEALIRAAREQQEKNEAALR-NH2
modifications: linker 2-6 via pXylylene
SMILES: CC[C@H](C)[C@H](NC(=O)[C@H](CC(C)C)NC(=O)[C@H](C)NC(=O)[C@H](CCC(=O)O)NC(=O)[C@@H](NC(=O)[C@@H]1CSCc2ccc(cc2)CSC[C@H](NC(=O)[C@H](C)NC(C)=O)C(=O)N[C@@H](Cc2ccc(O)cc2)C(=O)N[C@@H](C)C(=O)N[C@@H](C)C(=O)N1)[C@@H](C)CC)C(=O)N[C@@H](CCCNC(=N)N)C(=O)N[C@@H](C)C(=O)N[C@@H](C)C(=O)N[C@@H](CCCNC(=N)N)C(=O)N[C@@H](CCC(=O)O)C(=O)N[C@@H](CCC(N)=O)C(=O)N[C@@H](CCC(N)=O)C(=O)N[C@@H](CCC(=O)O)C(=O)N[C@@H](CCCCN)C(=O)N[C@@H](CC(N)=O)C(=O)N[C@@H](CCC(=O)O)C(=O)N[C@@H](C)C(=O)N[C@@H](C)C(=O)N[C@@H](CC(C)C)C(=O)N[C@@H](CCCNC(=N)N)C(N)=O
B11: peptide 88 (peptide)
peptide: Suc-ECYLRCIEELIRKAQEQQEKNEAALRGSGK(Palmitoyl)-NH2
modifications: linker 2-6 via pXylylene
SMILES: CCCCCCCCCCCCCCCC(=O)NCCCC[C@H](NC(=O)CNC(=O)[C@H](CO)NC(=O)CNC(=O)[C@H](CCCNC(=N)N)NC(=O)[C@H](CC(C)C)NC(=O)[C@H](C)NC(=O)[C@H](C)NC(=O)[C@H](CCC(=O)O)NC(=O)[C@H](CC(N)=O)NC(=O)[C@H](CCCCN)NC(=O)[C@H](CCC(=O)O)NC(=O)[C@H](CCC(N)=O)NC(=O)[C@H](CCC(N)=O)NC(=O)[C@H](CCC(=O)O)NC(=O)[C@H](CCC(N)=O)NC(=O)[C@H](C)NC(=O)[C@H](CCCCN)NC(=O)[C@H](CCCNC(=N)N)NC(=O)[C@@H](NC(=O)[C@H](CC(C)C)NC(=O)[C@H](CCC(=O)O)NC(=O)[C@H](CCC(=O)O)NC(=O)[C@@H](NC(=O)[C@@H]1CSCc2ccc(cc2)CSC[C@H](NC(=O)[C@H](CCC(=O)O)NC(=O)CCC(=O)O)C(=O)N[C@@H](Cc2ccc(O)cc2)C(=O)N[C@@H](CC(C)C)C(=O)N[C@@H](CCCNC(=N)N)C(=O)N1)[C@@H](C)CC)[C@@H](C)CC)C(N)=O
B12: peptide 89 (peptide)
peptide: Ac-ACYAACIEALIRAAQEQQEKNEAALR-NH2
modifications: linker 2-6 via 1,4‑dimethylnaphthyl

target: gp41 of HIV-1 strain HXB2D with mutation V38A (HIV-1 strain HXB2D, UniProt P04578); test: cell-based or functional assay

Question: B1 was tested. Which “fold change in EC50, HIV-HXB2D V38A mutant” value (shortened to “fold change in EC50”) did it give?
Answer: 6 fold

Question: With B2 as the binder, how does the “fold change in EC50” value read?
Answer: 51 fold

Question: B3 was tested. Which “fold change in EC50” value did it give?
Answer: 3 fold

Question: With B4 as the binder, how does the “fold change in EC50” value read?
Answer: 2 fold

Question: How did the “fold change in EC50” value turn out when B5 was run?
Answer: 53 fold

Question: With B6 as the binder, how does the “fold change in EC50” value read?
Answer: 2 fold

Question: For B7, which “fold change in EC50” value is on record?
Answer: 6 fold

Question: How did the “fold change in EC50” value turn out when B8 was run?
Answer: 1 fold

Question: How did the “fold change in EC50” value turn out when B9 was run?
Answer: 2 fold

Question: With B10 as the binder, how does the “fold change in EC50” value read?
Answer: 9 fold

Question: B11 was tested. Which “fold change in EC50” value did it give?
Answer: 1 fold

Question: How did the “fold change in EC50” value turn out when B12 was run?
Answer: 75 fold
